The chains are these.
B1: Transcription factor SOX-4, residues 60 to 127; numbered along this chain, Q06945 (parent)
chain: KRPMNAFMVWSQIERRKIMEQSPDMHNAEISKRLGKRWKLLKDSDKIPFIREAERLRLKHMADYPDYK

± gives the uncertainty stated by the source.

The data set covers variants of B1. In words: abundance fitness (aPCA) (normalised: wild type 0, dead -1); higher = more abundant; growth selection in yeast, the domain comes from the species named. The settings on record: Homo sapiens.
With K36C, the abundance fitness is -0.482 ± 0.28.
With K36L, the abundance fitness was -0.105 ± 0.057.
The value for K36V was 0.057 ± 0.063; that for R2Q was -0.039 ± 0.088.
Regarding R2D, the abundance fitness was -0.053 ± 0.13.
In the case of R2N, the abundance fitness was -0.154 ± 0.16.
In the case of R2S, the abundance fitness was determined as 0.003 ± 0.093.
On to R2Y, for which the abundance fitness was -0.374 ± 0.41.
For R2L, the abundance fitness is -0.275 ± 0.067.
On to N27W, for which the abundance fitness was -0.019 ± 0.057.
As for N27I, the abundance fitness is -0.192 ± 0.054.
For N27F, the abundance fitness is -0.245 ± 0.057.
Under N5P stands -0.546 ± 0.11.
Regarding N5R, the abundance fitness is -0.879 ± 0.19.
For N5T, the abundance fitness came out at 0.095 ± 0.047.
Consider N5Q, for which the abundance fitness was -0.585 ± 0.12.
For the variant N5A, the abundance fitness is -0.559 ± 0.1.
Turning to S44T, the abundance fitness is -0.134 ± 0.12.
On to S44P, for which the abundance fitness is -0.465 ± 0.13.
Take S44D: the abundance fitness was -0.217 ± 0.14.
Regarding S44C, the abundance fitness was -0.472 ± 0.13.
Consider Q21P, for which the abundance fitness was -0.874 ± 0.15.
Take Q21K: the abundance fitness was -0.204 ± 0.088.
On to Q21M, for which the abundance fitness is -0.244 ± 0.1.
Under Q21H stands -0.282 ± 0.11; under Q21V, -0.2 ± 0.061.
On to K32M, for which the abundance fitness was determined as 0.082 ± 0.057.
As to K32P, the abundance fitness was -0.498 ± 0.16.
As to K32F, the abundance fitness is -0.281 ± 0.045.
For the variant K32R, the abundance fitness is -0.054 ± 0.036.
Consider A62F, for which the abundance fitness was -0.22 ± 0.059.
A62P: the abundance fitness was -0.157 ± 0.067.
As for A62C, the abundance fitness is -0.15 ± 0.049.
The value for A62M was -0.304 ± 0.075; that for A62V was -0.123 ± 0.037; that for A62I was -0.163 ± 0.064.
As to A62L, the abundance fitness is -0.175 ± 0.042.
In the case of A62H, the abundance fitness was -0.175 ± 0.067.
In the case of H26V, the abundance fitness is -0.039 ± 0.11.
With H26L, the abundance fitness was -0.1 ± 0.051.
With H26C, the abundance fitness came to 0.127 ± 0.084.
For the variant H26M, the abundance fitness is -0.182 ± 0.093.
As for R33K, the abundance fitness came to 0.048 ± 0.13.
R33W: the abundance fitness was -0.089 ± 0.066.
As to R33V, the abundance fitness stood at 0.339 ± 0.074.
Turning to D43P, the abundance fitness is -0.137 ± 0.067.
As for D43F, the abundance fitness is -0.087 ± 0.041.
As to D43V, the abundance fitness is -0.262 ± 0.039.
Turning to D43C, the abundance fitness was -0.37 ± 0.058.
D43K: the abundance fitness is -0.273 ± 0.06.
The value for D43L was -0.151 ± 0.044; that for D43S was -0.237 ± 0.037.
The value for R16L was -0.154 ± 0.04; that for R16C was -0.206 ± 0.057; that for R16T was -0.077 ± 0.049.
Consider R16G, for which the abundance fitness was -0.254 ± 0.04.
The value for R16M was -0.212 ± 0.075.
With R16A, the abundance fitness is -0.011 ± 0.048.
In the case of L34H, the abundance fitness was -0.881 ± 0.12.
With H60N, the abundance fitness is -0.076 ± 0.24.
For the variant H60T, the abundance fitness is -0.05 ± 0.069.
H60C: the abundance fitness is -0.205 ± 0.13.
Under H60G stands 0.04 ± 0.05; under H60L, -0.186 ± 0.052; under H60R, -0.19 ± 0.047.
Consider A28E, for which the abundance fitness was -0.078 ± 0.069.
For A28S, the abundance fitness was -0.029 ± 0.052.
Take A28I: the abundance fitness is -0.463 ± 0.29.
Turning to A28D, the abundance fitness is -0.152 ± 0.12.
Under A28G stands -0.166 ± 0.054.
In the case of P48M, the abundance fitness was -0.168 ± 0.069.
The value for P48E was -0.189 ± 0.049; that for P48Q was -0.286 ± 0.2; that for P48F was -0.351 ± 0.076.
The value for P48V was -0.315 ± 0.044; that for P48Y was -0.566 ± 0.1; that for K39G was -0.098 ± 0.04.
For K39E, the abundance fitness came out at 0.057 ± 0.08.
In the case of E52W, the abundance fitness was -0.58 ± 0.14.
As for E52P, the abundance fitness is -1.14 ± 0.29.
For the variant E52F, the abundance fitness was -0.215 ± 0.11.
Turning to K1E, the abundance fitness is -0.317 ± 0.12.
For K1Y, the abundance fitness was -0.116 ± 0.13.
For K68C, the abundance fitness is -0.242 ± 0.17.
For K68S, the abundance fitness was -0.17 ± 0.096.
Regarding K68M, the abundance fitness was -0.23 ± 0.31.
For K68V, the abundance fitness is -0.43 ± 0.34.
K68P: the abundance fitness is 0.128 ± 0.35.
As for L40I, the abundance fitness is -0.468 ± 0.064.
In the case of L40H, the abundance fitness was -0.153 ± 0.14.
Under L40S stands 0.039 ± 0.042.
As for L40C, the abundance fitness is -0.046 ± 0.043.
For the variant L40T, the abundance fitness stood at 0.019 ± 0.065.
The value for L40Y was -0.331 ± 0.08.
The value for L40R was -0.08 ± 0.041; that for L40V was -0.329 ± 0.046.
In the case of L40D, the abundance fitness turned out to be 0.094 ± 0.058.
On to R57A, for which the abundance fitness amounted to 0.06 ± 0.062.
For the variant R57P, the abundance fitness was -0.236 ± 0.093.
For the variant R57H, the abundance fitness was -0.815 ± 0.41.
With R57V, the abundance fitness was -0.413 ± 0.072.
Under S31Q stands -0.038 ± 0.078.
For S31I, the abundance fitness was -0.054 ± 0.061.
As for S31L, the abundance fitness was -0.045 ± 0.041.
The value for S31P was -0.733 ± 0.11.
Turning to S31C, the abundance fitness was -0.027 ± 0.049.
Regarding S31F, the abundance fitness is -0.212 ± 0.043.
As for S31K, the abundance fitness was -0.039 ± 0.06.
Take I13P: the abundance fitness was -0.484 ± 0.09.
Turning to I13W, the abundance fitness was -0.531 ± 0.14.
In the case of I13L, the abundance fitness is -0.127 ± 0.062.
Consider I13Q, for which the abundance fitness was -0.12 ± 0.095.
Turning to I13F, the abundance fitness was -0.21 ± 0.18.
Under K42W stands -0.786 ± 0.13; under K42G, -0.264 ± 0.075; under K42C, -0.28 ± 0.2.
The value for K42D was -0.274 ± 0.16; that for K42A was -0.066 ± 0.079; that for I30C was -0.277 ± 0.046.
On to I30F, for which the abundance fitness is -0.912 ± 0.11.
As for I30M, the abundance fitness is -0.254 ± 0.063.
Take I30D: the abundance fitness is -0.871 ± 0.11.
As for I30A, the abundance fitness is -0.605 ± 0.1.
Take I30E: the abundance fitness is -0.8 ± 0.092.
Under M4Q stands -0.412 ± 0.11; under M4N, -0.265 ± 0.11; under M4D, -0.28 ± 0.071.
Take M4P: the abundance fitness was 0.002 ± 0.073.
For the variant M4V, the abundance fitness was -0.068 ± 0.044.
Regarding M4F, the abundance fitness was -0.033 ± 0.11.
Consider M4L, for which the abundance fitness is -0.105 ± 0.053.
The value for M4E was -0.202 ± 0.081; that for R37I was -0.371 ± 0.21.
Take R37P: the abundance fitness is -0.811 ± 0.16.
For the variant R37F, the abundance fitness is -0.714 ± 0.21.
Regarding W10C, the abundance fitness is -1.03 ± 0.43.
In the case of W10A, the abundance fitness is -1.03 ± 0.21.
In the case of W10Q, the abundance fitness was -0.921 ± 0.33.
The value for W10S was -0.893 ± 0.14; that for W10E was -0.964 ± 0.28.
On to W10T, for which the abundance fitness is -0.958 ± 0.24.
As for K46S, the abundance fitness was -0.901 ± 0.066.
On to K46M, for which the abundance fitness is -0.841 ± 0.074.
For the variant K46V, the abundance fitness was -0.798 ± 0.061.
With K46I, the abundance fitness is -0.553 ± 0.072.
As for K46R, the abundance fitness is -0.237 ± 0.04.
In the case of K46F, the abundance fitness is -0.995 ± 0.11.
On to K46N, for which the abundance fitness is -1.08 ± 0.11.
For K46P, the abundance fitness is -0.933 ± 0.2.
The value for K46L was -0.652 ± 0.063; that for K46Q was -0.701 ± 0.14.
Regarding R15N, the abundance fitness was -0.738 ± 0.096.
For the variant R15S, the abundance fitness was -0.335 ± 0.039.
For the variant R15M, the abundance fitness was -0.177 ± 0.053.
In the case of R15L, the abundance fitness was -0.512 ± 0.056.
For R15V, the abundance fitness is -0.495 ± 0.044.
Consider F49P, for which the abundance fitness is -1.08 ± 0.23.
Regarding F49K, the abundance fitness was -0.879 ± 0.17.
Consider F49Q, for which the abundance fitness was -0.972 ± 0.15.
The value for F49G was -0.702 ± 0.092; that for F49R was -1.04 ± 0.11; that for F49H was -0.131 ± 0.31.
The value for P3E was 0.072 ± 0.074.
Regarding P3R, the abundance fitness is -0.149 ± 0.039.
Consider P3A, for which the abundance fitness was -0.114 ± 0.053.
As for P3K, the abundance fitness was -0.103 ± 0.07.
With P3F, the abundance fitness is -0.186 ± 0.056.

(Values after the Human Domainome abundance scans (Beltran et al. 2025).)
